Data published in patent US20110142849A1 (IRM, published 2011).

Assays:
[1] = target: T1, recombinant human Pcsk9 (aa 31-692) with C-terminal his6 tag (human, UniProt Q8NBP7 31-692); test: TR-FRET, disruption of hLDL-R-Eu and hPcsk9-AF
T1 construct: In the TR-FRET assay it carried a fluorophore (hPcsk9-AF); also called hPCSK9; hPcsk9
Protocol: The TR-FRET assay was performed in 384-well white, shallow plates (Perkin Elmer, 6008280). hPcsk9-AF (10.7 nM) was incubated with serial dilutions of unlabeled hPcsk9 protein, EGF-A peptide, or NVP-LFU720-AX-1 antibody for 30 minutes at room temperature in 15 μL of assay buffer (20 mM HEPES, pH 7.2, 150 mM NaCl, 1 mM CaCl₂, 0.1% v/v Tween 20, and 0.1% w/v BSA). This was followed by addition of 5 μL of hLDL-R-Eu (4 nM) in assay buffer to the hPcsk9 and NVP-LFU720-AX-1 preincubated complex, and incubation at room temperature for 90 minutes. The final concentrations of these labeled proteins were 8 nM of hPcsk9-AF and 1 nM of hLDL-R-Eu. The TR-FRET signal was measured with EnVision 2100 multilabel reader (Perkin Elmer) at 330 nm excitation and 665 nm emission. Data was converted to normalized values using the following formula: [(665 nm value×10,000)/(615 nm value)]. The percentage inhibition was calculated with the following formula: 100-[(normalized value of treated sample/averaged normalized value of untreated samples)×100]. The percentage inhibition dose response curves were plotted using Prism version 5 with the formula, Y=Bottom+(Top−Bottom)/(1+10̂((LogIC₅₀−X)*HillSlope)) (GraphPad Prism Software).
TR-FRET assay was used for determining if the anti-hPcsk9 antibody NVP-LFU720 could disrupt the interaction between hPcsk9-AF and hLDL-R-Eu labeled proteins. […]

human LDL-R protein = target: T2, human LDL-R protein (human, UniProt P01130 22-788, limits assumed); test: ELISA
T2 construct: Labelled with europium in the TR-FRET assay; also called hLDL-R; hLDL-R-Eu (europium-labelled)

[2] = target: T3, mouse Pcsk9 with C-terminal his6 tag (mouse, UniProt Q80W65 35-694, limits assumed); test: ELISA
T3 construct: also called murine PCSK9

R682X = target: T4, R682X (human, UniProt Q8NBP7); test: co-immunoprecipitation with 5P20, blot
T4 construct: C-terminal truncation mutant, expressed protein; also called Pcsk9 C-term mutant R682X

H683X = target: T5, H683X (human, UniProt Q8NBP7); test: co-immunoprecipitation with 5P20, blot
T5 construct: C-terminal truncation mutant, expressed protein; also called Pcsk9 C-term mutant H683X

S681X = target: T6, S681X (human, UniProt Q8NBP7); test: co-immunoprecipitation with 5P20, blot
T6 construct: C-terminal truncation mutant, expressed protein; also called Pcsk9 C-term mutant S681X

A685X = target: T7, A685X (human, UniProt Q8NBP7); test: co-immunoprecipitation with 5P20, blot
T7 construct: C-terminal truncation mutant, expressed protein; also called C-term mutant A685X

[3] = target: T1, recombinant human Pcsk9 (aa 31-692) …; test: SPR (Biacore S51), antibody captured by anti-mouse Fcγ, Pcsk9 in flow
Protocol: Binding studies of Pcsk9 to the LFU720 (2 μg/mL) were carried out by capturing the mouse antibody with a rabbit anti-mouse Fcγ antibody (Biacore #BR-1005-14) that was previously immobilized onto a Series S CM-5 Biacore sensor chip (certified) (Biacore #BR-1005-30). Covalent binding of the Fcγ capture antibody was done with the ‘Amine Coupling Kit’ (Biacore #BR-1000-50). The capture antibody (rabbit-anti-mouse) was attached to the EDCactivated dextran surface with a 50 μg/mL anti-Fcγ antibody solution in 10 mM sodium acetate, pH 5 (Biacore #BR-1003-51) at a flow rate of 10 μL/min. A range of concentrations of Pcsk9 from 0.5 μM to 7.8 nM (2 fold serial dilution) were flowed over the captured LFU720 chip in PBS plus 100 mM NaCl, 0.005% P20 (Biacore #BR-1000-54). The resulting sensorgrams were analyzed using the Biacore S51 Evaluation Software. Data from all concentrations was fitted globally to a 1:1 Langmuir model.
Target sequence in this assay (Q8NBP7 other isoform, or with tags, fused parts or gaps limits assumed, form in doubt): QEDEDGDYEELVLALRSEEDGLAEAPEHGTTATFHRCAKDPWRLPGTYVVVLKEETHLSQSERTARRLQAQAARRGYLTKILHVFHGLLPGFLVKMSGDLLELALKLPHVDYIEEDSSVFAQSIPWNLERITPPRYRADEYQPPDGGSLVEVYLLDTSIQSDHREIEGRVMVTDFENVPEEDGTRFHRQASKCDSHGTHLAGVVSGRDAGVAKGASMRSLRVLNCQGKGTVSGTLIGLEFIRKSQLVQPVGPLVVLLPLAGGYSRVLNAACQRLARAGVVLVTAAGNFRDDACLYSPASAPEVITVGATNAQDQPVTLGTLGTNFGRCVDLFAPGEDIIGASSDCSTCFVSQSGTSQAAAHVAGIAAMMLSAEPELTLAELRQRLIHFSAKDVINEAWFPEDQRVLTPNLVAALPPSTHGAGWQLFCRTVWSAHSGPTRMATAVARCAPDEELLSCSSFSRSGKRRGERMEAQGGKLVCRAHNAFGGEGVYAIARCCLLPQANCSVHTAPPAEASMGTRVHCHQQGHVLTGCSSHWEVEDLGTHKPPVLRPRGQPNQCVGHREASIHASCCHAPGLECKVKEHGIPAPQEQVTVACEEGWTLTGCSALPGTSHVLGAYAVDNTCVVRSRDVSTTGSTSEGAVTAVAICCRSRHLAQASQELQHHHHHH

hDDR1 = target: T8, hDDR1 (human, UniProt Q08345); test: specificity ELISA on coated antigen (88 ng per well), antibody at 2 µg/mL, ABS650
T8 construct: panel antigen of the specificity ELISA
Protocol: For specificity ELISAs on purified human and mouse IgGs, a 384-well plate was coated with a panel of purified human or mouse antigens at 88 ng per well and incubated overnight at 4° C. The plate was blocked and washed as described above, then 22 μL of purified mouse or human anti-PCSK9 antibody diluted to 2 μg/mL in PBS was added to each well. The plate was incubated for 1 hr at 37° C. then washed with PBST. Anti-mouse Fc antibody (Jackson ImmunoResearch Labs #115-035-071) or anti-human kappa antibody (Sigma #A7164) conjugated to HRP was diluted 1:5000 in PBS (25 μL) and added to each well. The plate was incubated for 1 hr at room temperature, then washed and developed as described above.
In order to test whether the antigen specificity of the parental mouse antibody LFU720 was retained in the final Humaneered™ IgGs, LGT209, LGT210 and LGT211, binding of the antibodies to a panel of human and mouse antigens (as well as human PCSK9) was tested in an ELISA assay.

[4] = target: T3, mouse Pcsk9 with C-terminal his6 tag; test: not told in the legend

T3 sequence (Q80W65 other isoform, or with tags, fused parts or gaps limits assumed): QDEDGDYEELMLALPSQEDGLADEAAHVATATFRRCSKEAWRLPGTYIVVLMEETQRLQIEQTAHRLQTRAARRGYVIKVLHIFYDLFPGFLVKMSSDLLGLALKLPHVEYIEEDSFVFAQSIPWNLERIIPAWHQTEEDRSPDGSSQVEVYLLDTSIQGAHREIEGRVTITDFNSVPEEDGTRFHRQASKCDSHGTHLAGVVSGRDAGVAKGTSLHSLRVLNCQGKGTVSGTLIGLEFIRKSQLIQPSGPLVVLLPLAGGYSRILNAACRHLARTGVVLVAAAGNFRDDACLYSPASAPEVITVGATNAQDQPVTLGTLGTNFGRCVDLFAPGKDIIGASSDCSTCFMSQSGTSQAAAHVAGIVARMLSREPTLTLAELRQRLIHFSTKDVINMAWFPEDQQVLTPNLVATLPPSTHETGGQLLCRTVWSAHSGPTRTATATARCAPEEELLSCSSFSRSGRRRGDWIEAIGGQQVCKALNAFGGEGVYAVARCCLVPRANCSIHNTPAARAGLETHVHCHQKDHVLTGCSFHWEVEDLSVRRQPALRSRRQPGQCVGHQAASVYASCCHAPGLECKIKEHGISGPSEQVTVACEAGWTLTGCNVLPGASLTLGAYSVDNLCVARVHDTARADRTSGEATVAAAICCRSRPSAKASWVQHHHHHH
T8 sequence (Q08345 21-416 limits assumed): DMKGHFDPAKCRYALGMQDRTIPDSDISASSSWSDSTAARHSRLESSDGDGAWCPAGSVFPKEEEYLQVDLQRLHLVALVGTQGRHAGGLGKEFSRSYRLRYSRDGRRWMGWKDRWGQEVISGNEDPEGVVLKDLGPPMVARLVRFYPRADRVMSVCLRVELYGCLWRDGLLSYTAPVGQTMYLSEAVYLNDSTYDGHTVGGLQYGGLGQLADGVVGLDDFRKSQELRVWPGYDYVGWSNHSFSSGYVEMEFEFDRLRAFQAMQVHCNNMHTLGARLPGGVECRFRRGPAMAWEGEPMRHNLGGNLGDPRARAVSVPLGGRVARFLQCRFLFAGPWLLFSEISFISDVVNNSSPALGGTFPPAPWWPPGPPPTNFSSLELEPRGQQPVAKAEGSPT
T6 sequence (Q8NBP7 31-680 limits assumed): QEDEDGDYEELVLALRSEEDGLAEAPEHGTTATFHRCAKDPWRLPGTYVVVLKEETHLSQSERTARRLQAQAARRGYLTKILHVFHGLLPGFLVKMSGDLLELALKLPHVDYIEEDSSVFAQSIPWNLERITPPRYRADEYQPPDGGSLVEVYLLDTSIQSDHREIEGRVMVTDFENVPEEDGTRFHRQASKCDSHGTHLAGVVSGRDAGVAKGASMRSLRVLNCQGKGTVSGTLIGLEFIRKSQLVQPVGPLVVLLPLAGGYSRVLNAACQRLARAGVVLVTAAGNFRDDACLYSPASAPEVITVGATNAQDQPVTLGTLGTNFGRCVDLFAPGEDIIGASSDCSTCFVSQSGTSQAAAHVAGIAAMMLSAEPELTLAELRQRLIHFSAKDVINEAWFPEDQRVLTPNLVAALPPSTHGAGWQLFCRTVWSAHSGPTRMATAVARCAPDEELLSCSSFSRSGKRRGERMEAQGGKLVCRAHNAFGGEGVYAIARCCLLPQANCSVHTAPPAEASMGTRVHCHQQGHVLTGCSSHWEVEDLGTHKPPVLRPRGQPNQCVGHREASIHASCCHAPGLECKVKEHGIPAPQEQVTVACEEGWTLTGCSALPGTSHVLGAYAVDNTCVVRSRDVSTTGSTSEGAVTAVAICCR
T5 sequence (Q8NBP7 31-682 limits assumed): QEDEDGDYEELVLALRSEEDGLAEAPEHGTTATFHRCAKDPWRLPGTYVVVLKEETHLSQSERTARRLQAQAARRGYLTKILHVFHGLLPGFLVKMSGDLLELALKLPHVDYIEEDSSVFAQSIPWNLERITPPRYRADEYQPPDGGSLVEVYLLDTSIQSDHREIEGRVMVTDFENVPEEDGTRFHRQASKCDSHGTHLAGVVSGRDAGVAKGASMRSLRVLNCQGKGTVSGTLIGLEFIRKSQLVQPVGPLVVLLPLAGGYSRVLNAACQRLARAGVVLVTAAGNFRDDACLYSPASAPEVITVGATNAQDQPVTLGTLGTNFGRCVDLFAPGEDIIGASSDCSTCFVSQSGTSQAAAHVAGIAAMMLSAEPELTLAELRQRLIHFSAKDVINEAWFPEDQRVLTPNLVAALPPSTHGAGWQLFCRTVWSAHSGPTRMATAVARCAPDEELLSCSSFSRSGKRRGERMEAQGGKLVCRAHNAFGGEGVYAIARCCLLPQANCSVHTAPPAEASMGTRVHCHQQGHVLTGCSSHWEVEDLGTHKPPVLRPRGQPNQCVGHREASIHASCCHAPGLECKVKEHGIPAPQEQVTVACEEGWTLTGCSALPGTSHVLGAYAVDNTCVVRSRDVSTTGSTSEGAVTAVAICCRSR
T4 sequence (Q8NBP7 31-681 limits assumed): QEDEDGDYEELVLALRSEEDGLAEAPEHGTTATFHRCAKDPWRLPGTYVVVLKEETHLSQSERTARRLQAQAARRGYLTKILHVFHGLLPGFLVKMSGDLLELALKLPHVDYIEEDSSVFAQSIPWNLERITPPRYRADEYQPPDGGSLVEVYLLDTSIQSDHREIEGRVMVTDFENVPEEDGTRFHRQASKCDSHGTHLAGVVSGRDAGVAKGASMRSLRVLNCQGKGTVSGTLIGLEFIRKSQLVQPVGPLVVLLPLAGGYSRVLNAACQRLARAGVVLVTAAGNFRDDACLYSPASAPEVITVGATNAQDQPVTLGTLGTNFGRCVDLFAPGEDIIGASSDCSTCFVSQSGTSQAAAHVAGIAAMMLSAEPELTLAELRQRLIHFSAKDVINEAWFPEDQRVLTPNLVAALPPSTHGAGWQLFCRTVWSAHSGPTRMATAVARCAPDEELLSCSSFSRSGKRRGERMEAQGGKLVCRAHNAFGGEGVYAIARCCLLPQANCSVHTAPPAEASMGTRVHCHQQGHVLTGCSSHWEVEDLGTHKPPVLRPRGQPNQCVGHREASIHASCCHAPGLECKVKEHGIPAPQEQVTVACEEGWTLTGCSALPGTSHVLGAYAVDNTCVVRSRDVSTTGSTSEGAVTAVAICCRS
T7 sequence (Q8NBP7 31-684 limits assumed): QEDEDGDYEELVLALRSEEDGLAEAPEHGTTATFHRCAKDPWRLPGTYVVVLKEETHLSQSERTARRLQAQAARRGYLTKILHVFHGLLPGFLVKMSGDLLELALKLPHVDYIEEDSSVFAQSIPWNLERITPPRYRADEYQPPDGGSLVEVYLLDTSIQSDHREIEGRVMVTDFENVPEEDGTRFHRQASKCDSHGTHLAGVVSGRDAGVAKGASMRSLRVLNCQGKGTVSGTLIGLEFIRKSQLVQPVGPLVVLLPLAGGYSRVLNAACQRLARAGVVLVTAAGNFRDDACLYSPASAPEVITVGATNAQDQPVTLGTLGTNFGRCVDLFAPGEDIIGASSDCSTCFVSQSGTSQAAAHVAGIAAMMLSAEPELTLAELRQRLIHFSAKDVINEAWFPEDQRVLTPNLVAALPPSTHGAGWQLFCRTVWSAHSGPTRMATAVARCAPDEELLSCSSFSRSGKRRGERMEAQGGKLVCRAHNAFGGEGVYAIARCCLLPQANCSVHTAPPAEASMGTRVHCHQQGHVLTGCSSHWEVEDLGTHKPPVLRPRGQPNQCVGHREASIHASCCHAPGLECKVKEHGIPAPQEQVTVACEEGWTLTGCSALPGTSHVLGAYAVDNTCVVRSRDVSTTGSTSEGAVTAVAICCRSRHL

| Binder | IC50 [1] [nM] | binding result (human LDL-R protein) | binding result [2] | binding result (R682X) | binding result (H683X) | binding result (S681X) | binding result (A685X) | Kd [3] [nM] | binding result (hDDR1) | binding result [4] |
| --- | --- | --- | --- | --- | --- | --- | --- | --- | --- | --- |
| NVP-LFU720 (antibody, V domains shown, Murine anti-human Pcsk9 IgG1-kappa monoclonal antibody from a hybridoma; also called 5P20; NVP-LFU720-AX-1) VH: EVQLQQSGAELMKPGASVKLSCTASGFNIKDMYMSWVRQRPEQGLEWIGRIDPANGHTNYDPKFQAKATITTDTSSKTAYLHLSSLTSEDTAVYYCARSYYYYAMDYWGQGTSVTVSS VL: QIVLTQSPAIMSASPGEKVTMTCSASSSVSYMHWYQQKPGSSPRLWIYLTFNLASGVPARFSGSGSGTSYSLSISSMEAEDAATYYCLQWSSDPPTFGSGTKLEIK | > 1000 | no binding | no binding | no binding | no binding | no binding | no binding | 0.2 | no binding (tested: 2 µg/mL) |  |
| NVP-LGT211 (antibody, human IgG1, V domains shown, Silent human IgG1 kappa; also called pSR74 (Vh) + pJG10 (Vk); pSR074 + pJG10) VH: QVQLVQSGAEVKKPGASVKVSCKASGYTFSTMYMSWVRQAPGQGLEWMGRIDPANEHTNYAQKFQGRVTMTRDTSISTAYMELSRLTSDDTAVYYCARSYYYYAMDYWGQGTLVTVSS VL: QIVLTQSPATLSVSPGERATLSCRASQSVSYMHWYQQKPGQAPRLLIYGVFRRATGIPDRFSGSGSGTDFTLTIGRLEPEDFAVYYCLQWSSDPPTFGQGTKLEIKR |  |  |  |  |  |  |  |  | no binding (tested: 2 µg/mL) | no binding |
